B1: JARID2 1–450 with K116me3 (within PRC2AJ1–450) (domain or fragment, UniProt Q92833 1-450, looked up)
chain: MSKERPKRNIIQKKYDDSDGIPWSEERVVRKVLYLSLKEFKNSQKRQHAEGIAGSLKTVNGLLGNDQSKGLGPASEQSENEKDDASQVSSTSNDVSSSDFEEGPSRKRPRLQAQRKFAQSQPNSPSTTPVKIVEPLLPPPATQISDLSKRKPKTEDFLTFLCLRGSPALPNSMVYFGSSQDEEEVEEEDDETEDVKTATNNASSSCQSTPRKGKTHKHVHNGHVFNGSSRSTREKEPVQKHKSKEATPAKEKHSDHRADSRREQASANHPAAAPSTGSSAKGLAATHHHPPLHRSAQDLRKQVSKVNGVTRMSSLGAGVTSAKKMREVRPSPSKTVKYTATVTKGAVTYTKAKRELVKDTKPNHHKPSSAVNHTISGKTESSNAKTRKQVLSLGGASKSTGPAVNGLKVSGRLNPKSCTKEVGGRQLREGLQLREGLRNSKRRLEEAHQA
modifications: trimethyl-lysine at K116 (JARID2 K116me3)
notes: JARID2 residues 1–450; Stood in the assay as a subunit of m1; also called JARID2 K116me3; methylated JARID2; source: Sf9 insect cells (baculovirus), purified as part of the PRC2 complex

Key:
[1] = target: T1, EZH2 (catalytic subunit, within the PRC2 complexes) (UniProt Q15910 1-746); experiment: cryo-EM structure; 100 nM nucleosome (biotinylated DNA, held on streptavidin affinity grids) with 500 nM PRC2 in 50 mM HEPES pH 7.5, 50 mM KCl, 0.5 mM TCEP, 100 µM S-adenosyl homocysteine; 3–5 min at room temperature; conditions: both partners purified
T1 construct: EZH2; Stood in the assay as a subunit of m1 or m2; source: Sf9 insect cells (baculovirus), purified as part of the PRC2 complex
T1 sequence (Q15910 whole entry, one chain of several): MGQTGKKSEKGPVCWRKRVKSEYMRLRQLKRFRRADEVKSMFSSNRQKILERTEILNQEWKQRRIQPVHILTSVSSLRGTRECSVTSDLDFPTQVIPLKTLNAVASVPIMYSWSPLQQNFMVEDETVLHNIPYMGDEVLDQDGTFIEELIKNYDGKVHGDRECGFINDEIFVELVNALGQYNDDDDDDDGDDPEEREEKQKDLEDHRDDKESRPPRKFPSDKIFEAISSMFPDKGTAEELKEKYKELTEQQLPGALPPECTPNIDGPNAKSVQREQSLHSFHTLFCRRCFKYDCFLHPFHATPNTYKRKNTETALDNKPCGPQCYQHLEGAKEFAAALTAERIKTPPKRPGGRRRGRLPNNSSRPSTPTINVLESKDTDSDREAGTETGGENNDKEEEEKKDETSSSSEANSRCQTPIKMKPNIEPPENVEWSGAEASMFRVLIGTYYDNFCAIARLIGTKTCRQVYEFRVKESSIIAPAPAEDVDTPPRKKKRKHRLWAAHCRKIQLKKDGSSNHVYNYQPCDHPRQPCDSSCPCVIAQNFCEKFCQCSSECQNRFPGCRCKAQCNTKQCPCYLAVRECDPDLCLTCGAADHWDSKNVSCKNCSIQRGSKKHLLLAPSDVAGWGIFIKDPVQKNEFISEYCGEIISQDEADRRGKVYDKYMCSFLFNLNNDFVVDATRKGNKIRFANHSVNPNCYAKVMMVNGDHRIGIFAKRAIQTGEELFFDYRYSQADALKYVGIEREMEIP

[2] = target: B1; experiment: as above; conditions: both partners purified

Row | Binder | binding result [1] | binding result [2]
1 | B1 | binds | –
2 | EED (core subunit, within the PRC2 complexes) (natural protein, EED; Stood in the assay as a subunit of m1 or m2; source: Sf9 insect cells (baculovirus), purified as part of the PRC2 complex) not shown | – | binds

Source: PMC11832421, “Structural basis for the inhibition of PRC2 by active transcription histone posttranslational modifications” (Nature Structural & Molecular Biology, 2025)
